From the RNAGym collection of RNA variant scans (doi:10.1073/pnas.2313332121)

B1: TPR t1 (parent)
chain: GACCAAUCUGCCCUCAGAGCUCGAGAACAUCUUCGGAUGCAGAGGAGGCAGGCUUCGGUGGCGCGAUAGCGCCAACGUCCUCAACCUCCAAUGCAUCCCACCACAUGAUGAUGCCUGAAGAGCCUUGGUUUUUUG

Variants of: B1
Experiment: polymerase ribozyme fitness, log enrichment relative to wild type (log ratio); higher = more active; in vitro selection for triplet polymerase activity
Procedure, shortened: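 Each subunit of a heterodimeric triplet polymerase ribozyme was represented by a PCR-built, transcribed mutant library that underwent triplicate single-round in vitro selection with frozen incubation at −7 °C. Extended constructs were recovered by gel excision, streptavidin-bead capture and RT-PCR, and Illumina sequencing of input and output libraries kept genotypes with ≥10 input reads and ≥1 read per output. Fitness is the logarithm of genotype enrichment relative to wild-type enrichment, from inverse-variance-weighted replicate averages, with a logarithm base of 2.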

| Variant | polymerase ribozyme fitness (log ratio) |
| --- | --- |
| GACCAAUCUGCCCUCAGAGCUCGAGAACAUGUUCGAAUGCAGAGGAGGCAGACUUUGGUGGCGCGAUAGCGCCAACGUCCUCAACCUCCAAUGCAUCCCACCACAUGAUGAUGCGUGAAGAGCCUUGGUUUUUUG [C31G G36A G52A C56U C115G] | -7.46 |
| GACCAAUCUGCCCUCAGAGCUCGAGAACAUGUUCGGAUACAGAGGAGGCAGGCUUCGGUGGCGCGAUAGCGCCAACGUCCUCAACCUCCAAUGCAUCCCACCACAUCAUGAUGCCUGAAGAGCCUUGGUUUUGUG [C31G G39A G107C U133G] | -2.1 |
| GACCAAUCUGCCCUCAGAGCUCGAGAACAUGUUCGGAUGCAUAGGAGGCAGGCUUCGGUGGCGCGAUAGCGGCAACGUCCUCAACCUCCAAUGCAUCUCACCACAUCAUGAUGCUUGAAGAGCCUUGGUUUUUUG [C31G G42U C72G C98U G107C C115U] | -6.04 |
| GACCAAUCUGCCCUCAGAGCUCGAGAACAUGUUCGGAUGCAGAGGAAGCAGGCUUCGGUGGCGCGAUAGCGCCAACGUCGUCAACCUCCAAUGCAUCCCACCACAUGAUGAUGCUUGAAGAGCCUAGGUUUUUUG [C31G G47A C80G C115U U126A] | -8 |
| GACCAAUCUGCCCUCAGAGCUCGAGAACAUGUUCGGAUGCAGAGGAGGCAGGCUUCACUGGCACGAUAGCGCCAACGUCCUCAACCUCCAAUGCAUCCCACCACAUGAUGACGCCUGAAGAGCCUUGGUUUUUUG [C31G G57A G58C G63A U112C] | -7.16 |
| GACCAAUCUGCCCUCAGAGCUCGAGAACAUUUUCGGAUGCAGAGGCGGCAGGCUUCGGUGGCGCGAUAGCGCCAACGUCCUCAACCUCCAAUGCAUCCCACCACAUGAUGAUUCCUGAGGAGCCUUGGUUUUUUG [C31U A46C G113U A119G] | -5.51 |
| GACCAAUCUGCCCUCAGAGCUCGAGAACAUUUUCGGAUGCAGAGGUGGCAGGCUUCGGUGGCGCGAUAGCGCCAACGUCCUCAAUCUCCAAUGCAUCCCACCACAUGAUGAUGCCUGAAGAGCCUUGGUUUUUUG [C31U A46U C85U] | -7.42 |
| GACCAAUCUGCCCUCAGAGCUCGAGAACAUUUUCGGAUGCAGAGGAGGCUGGUUUCGGUGGCGCGAUAGCGUCAACGUCCUCAACCUCCAAUACAUCCCACCACAUGAUGAUGCCUGAAGAGCUUUGGUUUUUUG [C31U A50U C53U C72U G93A C124U] | -7.15 |
| GACCAAUCUGCCCUCAGAGCUCGAGAACAUUUUCGGAUGCAGAGGAGGCAGGCUUCGGUGGCGCGCUAGCGCCAACGGCCUCAACCUCCAAUGCAUCCCACCACAAGAUGAUGCCUGAAGAGACUUGGUUUUUUG [C31U A66C U78G U106A C123A] | -2.21 |
| GACCAAUCUGCCCUCAGAGCUCGAGAACAUUUUCGGAUGCAGAGGAGGCAGGCUUCGGUGGCGCGAUAGCGCCAACGUCCUCAACCUCCAAUGCAUCCCACCACAUGAUGAUGCCUGAGGAGCCUUGGUUUUUUG [C31U A119G] | -3.71 |
| GACCAAUCUGCCCUCAGAGCUCGAGAACAUUUUGGGAUGCAGAGGAGGCAGGGUUCGGUGGCGCGAUAGGGCCAACGUCCUCAACCUCCCAUGCAUCCCACCACAUGAUGAUGCCUGAAAAACAUUGGUUUUUUG [C31U C34G C53G C70G A90C G120A G122A C124A] | -7.98 |
| GACCAAUCUGCCCUCAGAGCUCGAGAACAUUUUCGGAUGCAGAGGAGGGAGGCUUCGGUGGCUCGAUAGCGCCACCGUCCUCAACCUCCAAUGCAUCCCACCACAUGAUGAUGCCUGAAGAGCCUUGGUUUUUUG [C31U C49G G63U A75C] | -6.11 |
| GACCAAUCUGCCCUCAGAGCUCGAGAACAUUUUCGGAUGCAGAGGAGGUAGGCUUCGGUGGCGCGAUAGCGCCAACGUCCUCAACCUCCAAUGCAUCCCACCAUAUGAUGAUGCAUGAAGAGCCUUGGUUUUUUG [C31U C49U C104U C115A] | -4.23 |
| GACCAAUCUGCCCUCAGAGCUCGAGAACAUUUUCGGAUGCAGAGGAGGCAGGUUUCGGUGGCGCGAUAGCGCCAACGUCCUCAACCUCCAAUGCAUCCCACCACAUGAUGAUGCCUGAAGAGCCUUGGUUUUUUG [C31U C53U] | -4.91 |
| GACCAAUCUGCCCUCAGAGCUCGAGAACAUUUUCGGAUGCAGAGGAGGCAGGCUUCGGUGGCGCGAUAGCGGCAACGUCCUCAACCUCCAAUGCAUCCCACCACAUGAUGAUGCCUGAAGAGCCUUGGUUUUUUG [C31U C72G] | -4.16 |
| GACCAAUCUGCCCUCAGAGCUCGAGAACAUUUUCGGAUGCAGAGGAGGCAGGCUUCGGUGGCGCGAUAGCGUCAACGUCCUCAACCUCCAAUGCAUCCCACCACAUGAUGAAGCCUGAAGAGCCUUGGUUUUUUG [C31U C72U U112A] | -3.81 |
| GACCAAUCUGCCCUCAGAGCUCGAGAACAUUUUCGGAUGCAGAGGAGGCAGGCUUCGGUGGCGCGAUAGCGCAAACGUCCUCAACCUCCAAUGCCUCCCACCACAUGAUGAUGCCUGAAGAGCCUUGGUUUUUUG [C31U C73A A95C] | -5.67 |
| GACCAAUCUGCCCUCAGAGCUCGAGAACAUUUUCGGAUGCAGAGGAGGCAGGCUUCGGUGGCGCGAUAGCGCCAACGUCCUAAACCUCCAAUGCAUCCCACCACAUGAUGAUGCCUGAAGAGCCUUGGUUUUUUG [C31U C82A] | -5.41 |
| GACCAAUCUGCCCUCAGAGCUCGAGAACAUUUUCGGAUGCAGAGGAGGCAGGCUUCGGUGGCGCGAUAGCGCCAACGUCCUCAACUUCCAAUGCAUCCCACCACAUGAUGAUGCCUGAAGAGCCUUGGUUUUUUG [C31U C86U] | -4.08 |
| GACCAAUCUGCCCUCAGAGCUCGAGAACAUUUUCGGAUGCAGAGGAGGCAGGCUUCGGUGGCGCGAUAGCGCCAACGUCCUCAACCUCCAAUGCAUCCCACCACAUGAUGAUGCAUGAAAAGCCUUGGUUUUUUG [C31U C115A G120A] | -4.78 |
| GACCAAUCUGCCCUCAGAGCUCGAGAACAUUUUCGGAUGCAGAGGAGGCAGGCUUCGGUGGCGCGAUAGCGCCAACGUCCUCAACCUCCAAUGCAUCCCACCACAUGAUGAUGCCUGAAGAGACUUGGUUUUUUG [C31U C123A] | -4.45 |

| Variant | polymerase ribozyme fitness (log ratio) |
| --- | --- |
| GACCAAUCUGCCCUCAGAGCUCGAGAACAUUUUCGGAUGCAGAGGAGGCAGGCUUCGGUGGCGCGAUAGCGCCAACGUCCUCAACCUCCAAUGCAUCCCACCACAUGAUGAUGCCUGAAGAGGCUUAGUUUUUUG [C31U C123G G127A] | -4.45 |
| GACCAAUCUGCCCUCAGAGCUCGAGAACAUUUUCGGAUGCAGAGGAUGCAGGCUUCGGUGGCGCGAUAGCGCCAACGUCCUCAACCUCCAAUGCAUCCCACCACAUGAUGAUGCCUGAAGAGCCUUGGUUUUUUG [C31U G47U] | -6.27 |
| GACCAAUCUGCCCUCAGAGCUCGAGAACAUUUUCGGAUGCAGAGGAGGCAGGCUUCGGUGGCUCGAUAGCGCCAACGUCCUCAACCUCCAAUGCAUCCCACCACAUAAUGAUGCCUGAAGAGCCUUGGUUUUUUG [C31U G63U G107A] | -2.29 |
| GACCAAUCUGCCCUCAGAGCUCGAGAACAUUUUCGGAUGCAGAGGAGGCAGGCUUCGGUGGCGCGAUAUCGCUAACGUCCUCAACCUCCAAUGCAUCCCUCCACAUGAUGAUGCCUGAAGAGCCUUGGUUUUUUG [C31U G69U C73U A100U] | -3.8 |
| GACCAAUCUGCCCUCAGAGCUCGAGAACAUUUUCGGAUGCAGAGGAGGCAGGCUUCGGUGGCGCGAUAGCGCCAACGUCCUCAACCUCCAAUGCAUCCCACCACAUGAUAAUGCCUGAAGAGCCUUGGUUUUUUG [C31U G110A] | -4.35 |
| GACCAAUCUGCCCUCAGAGCUCGAGAACAUUUUCGGAUGCAGAGGAGGCAGGCGUCGGCGGCGCGAUAGCGCCAACGUCCUCAACCUCCAAUGCAUCCCACCCCAUGAUGCUGCCUGAAGAGCCUUGGUUUUUUG [C31U U54G U59C A103C A111C] | -5.45 |
| GACCAAUCUGCCCUCAGAGCUCGAGAACAUUUUCGGAUGCAGAGGAGGCAGGCUUCGGGGGCGCGAUAGCGCUAACGUCCUCAACCUCCAAUGCAUCCCACCACAUGAUGAUGCCUGAAGAGCCUUGGUUUUUUG [C31U U59G C73U] | -5.82 |
| GACCAAUCUGCCCUCAGAGCUCGAGAACAUUUUCGGAUGCAGAGGAGGCAGGCUUCGGUGGCGCGAUAGCGCCAACGGCCUCAACCUCCAAUGCAUCCCAGCAAAUGAUAAUGCCUGAAGAGCCUUGGUUUUUUG [C31U U78G C101G C104A G110A] | -5.57 |
| GACCAAUCUGCCCUCAGAGCUCGAGAACAUUUUCGGAUGCAGAGGAGGCAGGCUUCGGUGGCGCGAUAGCGCCAACGUCCCCAACCUCCAAUGCAUCCCACCACAUGAUGAUGCCUGAAUAGCCUUGGUUUUUUG [C31U U81C G120U] | -6.22 |
| GACCAAUCUGCCCUCAGAGCUCGAGAACAUUUUCGGAUGCAGAGGAGGCAGGCUUCGGUGGCGCGAUAGCGCCAACGUCCUCAACCUCCAAUGCAUCCCACCACAUGAUGAGGCCUGAAGAGCCUUGGUUUUUUG [C31U U112G] | -4.94 |
| GACCAAUCUGCCCUCAGAGCUCGAGAACAUCAUCGGAUGCAGCGGAGGCAGGCUUCGGUGGCCCGAUAGCGCCAACGUCCUCAACCUCCAAUGCAUCCCACCACAUGAUGAUGCCUGAAGAGCCUUGGUUUUUUG [U32A A43C G63C] | -6.22 |
| GACCAAUCUGCCCUCAGAGCUCGAGAACAUCAUCGGAUGCAGAGGAGGCAGGCUUCGGUGGCGCGAUAGCGCCAACGUCCUCAACCUCCAAUGCAUCCCACCACAUGAUGAUGCCUGAAGUGCCUUGGUUUUAUG [U32A A121U U133A] | -1.22 |
| GACCAAUCUGCCCUCAGAGCUCGAGAACAUCAUGGGAUGCAGAGGAGGCAGGCUUCGGUGGCGCGAUAGCGCCAACGUCCUCAACCUCCAAUGCAUCCCACCACAUGAUGAUGCCUGAAGAGCCUUGGUUUUUUG [U32A C34G] | -6.88 |
| GACCAAUCUGCCCUCAGAGCUCGAGAACAUCAUCGGAUGUAGAGGAGGCAGGCUUCGGUGGCGCGAUAGCGCCAACGUCCUCAACCUCCAAUGCAUCCCAACACAUGAUGAUGCCUGAAGAGCCUUGGUUUUUUG [U32A C40U C101A] | -4.24 |
| GACCAAUCUGCCCUCAGAGCUCGAGAACAUCAUCGGAUGUAGAGGAGGCAGGCUUCGGUGGCACGAUAGCGCCAACGUCCUCGACCUCCAAUGCAUCCCACCACAUGAUGAUGCCUGAACAGCCUUGGUUUUUUG [U32A C40U G63A A83G G120C] | -7.22 |
| GACCAAUCUGCCCUCAGAGCUCGAGAACAUCAUCGGAUGCAGAGGAGGCAGGCUUAGGUGGCGCGAUAGCGCCAACGUCCUCAACCUCCAAUGCAUCCCACCACAUGAUGAUGCCUGAAGAGCCUUGGUUUUUUG [U32A C56A] | -3.44 |
| GACCAAUCUGCCCUCAGAGCUCGAGAACAUCAUCGGAUGCAGAGGAGGCAGGCUUGGGUGGCGCGAUAGCGCCAACGUCCUCAACCUCCAAUGCAUCCCACCACAUGAUGAUGCCUGAAGAGCCUUGGUUUUUUG [U32A C56G] | -3.79 |
| GACCAAUCUGCCCUCAGAGCUCGAGAACAUCAUCGGAUGCAGAGGAGGCAGGCUUCGGUGGCGCGAUAGCGGCAACGUCCUCAACCUCCAAUGCAUCCCACCACAUGAUGAUGCCUGAAGAGCCUUGGUUUUUUG [U32A C72G] | -3.95 |
| GACCAAUCUGCCCUCAGAGCUCGAGAACAUCAUCGGAUGCAGAGGAGGCAGGCUUCGGUGGCGCGAUAGCGUCAACGUCCUCAACCUCCAAUGCAUCCCACCACAUGAUGAUGCCUGAAGAGCCUUGGUUUUUUG [U32A C72U] | -5 |
| GACCAAUCUGCCCUCAGAGCUCGAGAACAUCAUCGGAUGCAGAAGAGGCAGGCUUCGGUGGCGCGAUAGCGCCAACGUCCUCAACCUCCAAUGAAUCCGACCACAUGAUGAUGCCUGAAUAGCCUUGGUUUUUUG [U32A G44A C94A C99G G120U] | -7.6 |
| GACCAAUCUGCCCUCAGAGCUCGAGAACAUCAUCGGAUGCAGAGGAGUCAGGCUUCGAUGGCGCGAUAGCGCCAACGUCCUCAACCUCCAAUGCAUCCCACCACAUGAUGAUGCCUGAAGAGUCUUGGUUUUUUG [U32A G48U G58A C123U] | -4.55 |
